Experimental data published in patent US20200277339A1.

Biological target: recombinant purified fragment of TLR5 ectodomain of fish origin (fish)
Assay: competition fluorescence polarization, cell-free

## CBLB502 (ligand)
  Relative EC50 vs 502, Binding (FP): 1 fold vs 502
